Test results reported in PMC3848071 (Acta Naturae, 2013).

Experiments:
MGL from P. gingivalis = MGL from P. gingivalis (Porphyromonas gingivalis, UniProt Q7MX71); conditions: read-out: MGL from P. gingivalis / Кm
MGL from C. tetani = target: T1, MGL from C. tetani (Clostridium tetani, UniProt Q890V5); conditions: read-out: MGL from C. tetani / Кm
T1 construct: gene CTC_02530

MGL from C. sporogenes = target: T2, MGL from C. sporogenes (Clostridium sporogenes, UniProt A0A7X5SZI3); type: biochemical; conditions: read-out: MGL from C. sporogenes / Кm
T2 construct: gene megL

CSCC[C@H](N)C(=O)O = assay: purified protein
[1] = system: N[C@@H](CSCc1ccccc1)C(=O)O; assay: purified protein
[2] = system: C[S+]([O-])CC[C@H](N)C(=O)O; assay: purified protein
CCSC[C@H](N)C(=O)O = assay: purified protein

Molecule	Km (MGL from P. gingivalis) [µM]	Km (MGL from C. tetani) [µM]	Km (MGL from C. sporogenes) [µM]	Km (CSCC[C@H](N)C(=O)O) [µM]	kcat/Km (CSCC[C@H](N)C(=O)O) [M⁻¹ s⁻¹]	Km [1] [µM]	kcat/Km [1] [M⁻¹ s⁻¹]	Km [2] [µM]	kcat/Km [2] [M⁻¹ s⁻¹]	Km (CCSC[C@H](N)C(=O)O) [µM]	kcat/Km (CCSC[C@H](N)C(=O)O) [M⁻¹ s⁻¹]
CCSCC[C@H](N)C(=O)O [S-Et-L-Hcy]	930	545	278	–	–	–	–	–	–	–	–
MGL from C. tetani (Clostridium tetani E88)	–	–	–	947	12700	–	–	–	–	–	–
MGL from P. gingivalis (Porphyromonas gingivalis W83)	–	–	–	1770	2200	1470	3940	12220	413	2170	3710
